# Measured values from patent US20260258128A1.
# Legend:
# [1] = biological target: CD3 on T cells of human peripheral blood mononuclear cells (human) (UniProt P07766); assay: cell-based or functional assay
# [2] = biological target: human CD3εδ (human) (UniProt P07766); assay: SPR (Biacore T200), binding to CD3εδ against binding to CD3εγ
# Chain of human CD3εδ (human) (P07766 23-126, stated change not applied, chain 1 of 2): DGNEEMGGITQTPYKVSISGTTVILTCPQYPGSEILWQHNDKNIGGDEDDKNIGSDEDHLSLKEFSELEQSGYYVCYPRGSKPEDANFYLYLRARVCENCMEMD
# Chain of human CD3εδ (human) (P04234 22-105, stated change not applied, chain 2 of 2, further chain): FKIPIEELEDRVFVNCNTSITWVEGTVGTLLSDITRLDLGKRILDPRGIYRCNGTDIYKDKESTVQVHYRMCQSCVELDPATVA
# Chain of CD3 on T cells of human peripheral blood mononuclear cells (human) (P07766 23-207): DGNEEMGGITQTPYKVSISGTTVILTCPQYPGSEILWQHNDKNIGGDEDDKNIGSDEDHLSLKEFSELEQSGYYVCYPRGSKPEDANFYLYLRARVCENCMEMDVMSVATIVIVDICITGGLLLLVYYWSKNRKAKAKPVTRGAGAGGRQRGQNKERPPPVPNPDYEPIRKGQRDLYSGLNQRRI
substance,measurement,setting,value
CD3 (UCHT1)-binding monoclonal antibody,"Death of cancer cells EC50 (MDA-MB-231 + human PBMC, flow cytometry)",[1],0.5 pM
same,Death of cancer cells Emax (%),[1],46%
same,IFNγ release EC50,[1],3 pM
same,IFNγ release Maximum concentration,[1],16 ng/mL
same,"T cell activation (CD3+ CD8+ CD69+), human PBMC only, flow cytometry",[1],60%
same,ratio of the binding strength to CD3εδ/binding strength to CD3εγ,[2],19.3 fold
